# Reference: PMC9482650, “Quantitative fragmentomics allow affinity mapping of interactomes” (Nature Communications, 2022)
# T1: GRIP1_3, Q9Y3R0
# T1 sequence (Q9Y3R0 247-346, limits assumed, looked up): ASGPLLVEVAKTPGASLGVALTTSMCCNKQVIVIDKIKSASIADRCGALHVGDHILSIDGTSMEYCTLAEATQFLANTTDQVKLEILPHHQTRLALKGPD
# T2: PDZRN3_1, Q9UPQ7
# T2 sequence (Q9UPQ7 244-349, limits assumed, looked up): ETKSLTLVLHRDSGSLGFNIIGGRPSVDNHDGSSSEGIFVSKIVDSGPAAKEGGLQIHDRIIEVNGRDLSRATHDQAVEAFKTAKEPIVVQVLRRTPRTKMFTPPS
# T3: APBA1_2, Q02410
# T3 sequence (Q02410 742-832, limits assumed, looked up): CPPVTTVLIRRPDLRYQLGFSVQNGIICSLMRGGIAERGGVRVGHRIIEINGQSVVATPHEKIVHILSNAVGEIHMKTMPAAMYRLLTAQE
# T4: RHPN1, Q8TCX5
# T4 sequence (Q8TCX5 508-602, limits assumed, looked up): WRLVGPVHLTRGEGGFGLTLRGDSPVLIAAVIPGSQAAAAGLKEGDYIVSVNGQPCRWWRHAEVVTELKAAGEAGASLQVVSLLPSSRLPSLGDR
# T5: PTPN13_1, Q12923
# T5 sequence (Q12923 1088-1188, limits assumed, looked up): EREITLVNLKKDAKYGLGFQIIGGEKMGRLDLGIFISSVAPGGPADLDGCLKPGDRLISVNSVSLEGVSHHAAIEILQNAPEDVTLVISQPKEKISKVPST
# T6: RADIL, Q96JH8
# T6 sequence (Q96JH8 971-1071, limits assumed, looked up): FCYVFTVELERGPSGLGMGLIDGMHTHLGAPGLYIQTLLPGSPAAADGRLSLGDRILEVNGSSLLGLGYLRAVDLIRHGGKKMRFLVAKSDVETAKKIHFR
# T7: SNTG2, Q9NY99
# T7 sequence (Q9NY99 68-166, limits assumed, looked up): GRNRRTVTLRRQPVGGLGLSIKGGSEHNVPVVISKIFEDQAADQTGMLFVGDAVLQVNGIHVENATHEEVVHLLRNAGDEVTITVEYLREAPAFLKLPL
# T8: LRRC7, Q96NW7
# T8 sequence (Q96NW7 1440-1537, limits assumed, looked up): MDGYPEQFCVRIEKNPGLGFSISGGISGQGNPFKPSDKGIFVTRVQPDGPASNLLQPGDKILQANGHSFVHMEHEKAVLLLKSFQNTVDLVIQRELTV
# T9: ARHGEF11, O15085
# T9 sequence (O15085 42-136, limits assumed, looked up): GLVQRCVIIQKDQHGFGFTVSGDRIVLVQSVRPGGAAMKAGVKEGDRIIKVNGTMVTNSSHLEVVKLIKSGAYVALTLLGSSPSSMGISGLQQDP
# T10: MPDZ_12, O75970
# T10 sequence (O75970 1857-1958, limits assumed, looked up): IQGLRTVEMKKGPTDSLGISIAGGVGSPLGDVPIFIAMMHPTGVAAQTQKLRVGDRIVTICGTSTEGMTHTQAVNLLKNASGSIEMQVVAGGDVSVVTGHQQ
# T11: GRIP1_2, Q9Y3R0
# T11 sequence (Q9Y3R0 145-248, limits assumed, looked up): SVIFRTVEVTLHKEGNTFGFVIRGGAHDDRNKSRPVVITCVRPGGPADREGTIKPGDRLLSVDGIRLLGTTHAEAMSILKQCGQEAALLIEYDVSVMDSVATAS
# T12: SNTB1, Q13884
# T12 sequence (Q13884 107-205, limits assumed, looked up): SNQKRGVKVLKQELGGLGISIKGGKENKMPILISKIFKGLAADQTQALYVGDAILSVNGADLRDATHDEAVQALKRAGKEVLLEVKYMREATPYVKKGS
# Assays:
# Test in all cases: holdup assay
# Set-up in all cases: key: below the threshold = too weak to quantify, mostly under pKd 3.1 to 4
# Settings in all cases: plain residues with an end cap or a label only (N-terminal biotin on a linker: ado-ado)
# GRIP1_3, Q9Y3R0 = target: T1, GRIP1_3, Q9Y3R0
# DLG5_1, Q8TDM6 = target: DLG5_1, Q8TDM6
# Chain of DLG5_1, Q8TDM6 (Q8TDM6 617-713): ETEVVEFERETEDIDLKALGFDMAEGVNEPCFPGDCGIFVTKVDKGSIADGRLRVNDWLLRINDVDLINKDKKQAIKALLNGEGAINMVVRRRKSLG
# PDZRN3_1, Q9UPQ7 = target: T2, PDZRN3_1, Q9UPQ7
# APBA1_2, Q02410 = target: T3, APBA1_2, Q02410
# NHERF4_2, Q86UT5 = target: NHERF4_2, Q86UT5
# Chain of NHERF4_2, Q86UT5 (Q86UT5 220-308): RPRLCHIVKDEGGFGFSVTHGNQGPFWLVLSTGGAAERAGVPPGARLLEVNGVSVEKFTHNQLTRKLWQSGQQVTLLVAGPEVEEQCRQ
# MAGI2_3, Q86UL8 = target: MAGI2_3, Q86UL8
# Chain of MAGI2_3, Q86UL8 (Q86UL8 600-682): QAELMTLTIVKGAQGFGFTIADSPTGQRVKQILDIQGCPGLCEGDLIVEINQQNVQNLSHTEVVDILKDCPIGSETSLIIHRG
# ARHGEF12, Q9NZN5-2 = target: ARHGEF12, Q9NZN5-2
# Chain of ARHGEF12, Q9NZN5-2 (Q9NZN5 other isoform, or with tags, fused parts or gaps): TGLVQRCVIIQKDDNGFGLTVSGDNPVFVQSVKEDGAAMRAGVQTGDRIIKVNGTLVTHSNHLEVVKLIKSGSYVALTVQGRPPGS
# DLG1_1, Q12959 = target: DLG1_1, Q12959
# PARD3_3, Q8TEW0 = target: PARD3_3, Q8TEW0
# Chain of PARD3_3, Q8TEW0 (Q8TEW0 582-685): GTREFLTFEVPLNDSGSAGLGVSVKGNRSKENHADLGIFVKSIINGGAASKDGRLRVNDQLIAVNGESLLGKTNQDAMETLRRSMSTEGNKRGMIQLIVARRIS
# SCRIB_3, Q14160 = target: SCRIB_3, Q14160
# Chain of SCRIB_3, Q14160 (Q14160 999-1103): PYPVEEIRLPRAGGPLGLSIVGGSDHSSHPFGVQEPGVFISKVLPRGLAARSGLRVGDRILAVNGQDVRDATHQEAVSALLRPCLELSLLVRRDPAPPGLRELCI
# RHPN1, Q8TCX5 = target: T4, RHPN1, Q8TCX5
# PTPN13_1, Q12923 = target: T5, PTPN13_1, Q12923
# SCRIB_1, Q14160 = target: SCRIB_1, Q14160
# Chain of SCRIB_1, Q14160 (Q14160 718-814): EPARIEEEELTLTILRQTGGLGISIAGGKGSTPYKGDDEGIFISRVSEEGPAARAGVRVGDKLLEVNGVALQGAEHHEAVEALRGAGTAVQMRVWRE
# RADIL, Q96JH8 = target: T6, RADIL, Q96JH8
# SNTG2, Q9NY99 = target: T7, SNTG2, Q9NY99
# LRRC7, Q96NW7 = target: T8, LRRC7, Q96NW7
# Inadl_10, Q8NI35 = target: Inadl_10, Q8NI35
# Chain of Inadl_10, Q8NI35 (Q8NI35 1673-1763): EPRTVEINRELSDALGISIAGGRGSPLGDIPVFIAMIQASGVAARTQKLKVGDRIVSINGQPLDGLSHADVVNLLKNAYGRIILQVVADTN
# ARHGEF11, O15085 = target: T9, ARHGEF11, O15085
# MPDZ_12, O75970 = target: T10, MPDZ_12, O75970
# DLG4_2, P78352 = target: DLG4_2, P78352
# Chain of DLG4_2, P78352 (P78352 155-259): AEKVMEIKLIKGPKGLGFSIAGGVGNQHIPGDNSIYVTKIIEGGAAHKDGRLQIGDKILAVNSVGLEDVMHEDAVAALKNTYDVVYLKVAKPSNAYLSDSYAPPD
# Inadl_4, Q8NI35 = target: Inadl_4, Q8NI35
# Chain of Inadl_4, Q8NI35 (Q8NI35 547-651): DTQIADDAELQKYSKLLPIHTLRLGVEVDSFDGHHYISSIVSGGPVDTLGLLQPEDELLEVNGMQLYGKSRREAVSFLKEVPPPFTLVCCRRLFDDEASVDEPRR
# CASK, O14936 = target: CASK, O14936
# Chain of CASK, O14936 (O14936 487-570): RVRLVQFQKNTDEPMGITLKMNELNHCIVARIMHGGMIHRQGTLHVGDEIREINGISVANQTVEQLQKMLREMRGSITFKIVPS
# GRIP1_2, Q9Y3R0 = target: T11, GRIP1_2, Q9Y3R0
# SNTB1, Q13884 = target: T12, SNTB1, Q13884
# DLG2_2, Q15700 = target: DLG2_2, Q15700
# Chain of DLG2_2, Q15700 (Q15700 189-283): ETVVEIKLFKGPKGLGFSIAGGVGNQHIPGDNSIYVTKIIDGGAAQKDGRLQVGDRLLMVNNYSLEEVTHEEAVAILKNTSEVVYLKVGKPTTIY
# MAGI2_5, Q86UL8 = target: MAGI2_5, Q86UL8
# Chain of MAGI2_5, Q86UL8 (Q86UL8 915-1017): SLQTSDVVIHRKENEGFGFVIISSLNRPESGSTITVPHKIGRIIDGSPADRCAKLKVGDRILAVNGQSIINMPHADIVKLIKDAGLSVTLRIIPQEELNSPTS
Binder,"pKd (GRIP1_3, Q9Y3R0)","pKd (DLG5_1, Q8TDM6)","pKd (PDZRN3_1, Q9UPQ7)","pKd (APBA1_2, Q02410)","pKd (NHERF4_2, Q86UT5)","pKd (MAGI2_3, Q86UL8)","pKd (ARHGEF12, Q9NZN5-2)","pKd (DLG1_1, Q12959)","pKd (PARD3_3, Q8TEW0)","pKd (SCRIB_3, Q14160)","pKd (RHPN1, Q8TCX5)","pKd (PTPN13_1, Q12923)","pKd (SCRIB_1, Q14160)","pKd (RADIL, Q96JH8)","pKd (SNTG2, Q9NY99)","pKd (LRRC7, Q96NW7)","pKd (Inadl_10, Q8NI35)","pKd (ARHGEF11, O15085)","pKd (MPDZ_12, O75970)","pKd (DLG4_2, P78352)",also measured
"AKPSRISTVV [IQSEC2, Q5JU85]",below the threshold,below the threshold,below the threshold,3.49,below the threshold,3.55,4.75,4.81,below the threshold,3.74,below the threshold,below the threshold,3.58,4.32,below the threshold,below the threshold,below the threshold,4.59,3.49,5.31,"pKd (Inadl_4, Q8NI35): below the threshold; pKd (CASK, O14936): below the threshold; pKd (GRIP1_2, Q9Y3R0): below the threshold; pKd (SNTB1, Q13884): 4.16; pKd (DLG2_2, Q15700): 5.21; pKd (MAGI2_5, Q86UL8): 4.44"
"PEYLGLDVPV [ERBB2, P04626]",below the threshold,below the threshold,3.48,below the threshold,below the threshold,3.5,below the threshold,below the threshold,3.52,below the threshold,below the threshold,below the threshold,below the threshold,below the threshold,below the threshold,below the threshold,below the threshold,3.83,below the threshold,3.48,"pKd (Inadl_4, Q8NI35): below the threshold; pKd (CASK, O14936): below the threshold; pKd (GRIP1_2, Q9Y3R0): below the threshold; pKd (SNTB1, Q13884): 3.92; pKd (DLG2_2, Q15700): below the threshold; pKd (MAGI2_5, Q86UL8): below the threshold"
"KKMPSIESDV [GRIN2A, Q12879]",below the threshold,below the threshold,below the threshold,below the threshold,below the threshold,below the threshold,3.69,4.75,below the threshold,4.85,3.83,below the threshold,4.34,below the threshold,4.41,3.91,below the threshold,below the threshold,below the threshold,5.29,"pKd (Inadl_4, Q8NI35): below the threshold; pKd (CASK, O14936): below the threshold; pKd (GRIP1_2, Q9Y3R0): below the threshold; pKd (SNTB1, Q13884): 4.69; pKd (DLG2_2, Q15700): 5.04; pKd (MAGI2_5, Q86UL8): below the threshold"

# More lines, main results first:
"pKd (GRIP1_3, Q9Y3R0)","pKd (DLG5_1, Q8TDM6)","pKd (PDZRN3_1, Q9UPQ7)","pKd (APBA1_2, Q02410)","pKd (NHERF4_2, Q86UT5)","pKd (MAGI2_3, Q86UL8)","pKd (ARHGEF12, Q9NZN5-2)","pKd (DLG1_1, Q12959)","pKd (PARD3_3, Q8TEW0)","pKd (SCRIB_3, Q14160)","pKd (RHPN1, Q8TCX5)","pKd (PTPN13_1, Q12923)","pKd (SCRIB_1, Q14160)","pKd (RADIL, Q96JH8)","pKd (SNTG2, Q9NY99)","pKd (LRRC7, Q96NW7)","pKd (Inadl_10, Q8NI35)","pKd (ARHGEF11, O15085)","pKd (MPDZ_12, O75970)","pKd (DLG4_2, P78352)",Binder,also measured
below the threshold,below the threshold,3.48,below the threshold,below the threshold,below the threshold,4.02,below the threshold,4.63,4.16,4.45,below the threshold,3.99,below the threshold,below the threshold,3.85,below the threshold,below the threshold,below the threshold,below the threshold,"TSQESEDTYL [TBC1D10A, Q9BXI6]","pKd (Inadl_4, Q8NI35): below the threshold; pKd (CASK, O14936): below the threshold; pKd (GRIP1_2, Q9Y3R0): below the threshold; pKd (SNTB1, Q13884): 3.79; pKd (DLG2_2, Q15700): below the threshold; pKd (MAGI2_5, Q86UL8): below the threshold"
below the threshold,below the threshold,below the threshold,below the threshold,below the threshold,below the threshold,4.25,3.8,below the threshold,3.99,3.92,below the threshold,3.75,below the threshold,4.08,3.72,below the threshold,4.2,below the threshold,4.38,"DDENIRTSDV [PLEKHA2, Q9HB19]","pKd (Inadl_4, Q8NI35): below the threshold; pKd (CASK, O14936): below the threshold; pKd (GRIP1_2, Q9Y3R0): below the threshold; pKd (SNTB1, Q13884): 5.37; pKd (DLG2_2, Q15700): 4.04; pKd (MAGI2_5, Q86UL8): below the threshold"
